15 molecules from publication PMC8298264, “Function of cofactor Akirin2 in the regulation of gene expression in model human neutrophil-like HL60 cells” (Bioscience Reports, 2021) can be followed below.

In this experiment the test system is human HL60 cells. Description: SWATH-MS proteomics, differential protein representation, akirin2 KO vs WT HL60 cells. The format is cell-based. Conditions: SWATH-MS, akirin2 KO vs WT HL60 cells; over-represented in KO. The essentials:
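First, proteins from wild-type and knockout cells are digested with trypsin by FASP. Next, pooled IDA runs generate a reference ion library. Then six samples of 5 µg each are acquired by data-independent SWATH, and protein areas are normalized to the summed area of all detected proteins.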

B1: sp¦Q15370¦ELOB_HUMAN (protein, UniProt Q15370 1-118, looked up)
Elongin-B: MDVFLMIRRHKTTIFTDAKESSTVFELKRIVEGILKRPPDEQRLYKDDQLLDDGKTLGECGFTSQTARPQAPATVGLAFRADDTFEALCIEPFSSPPELPDVMKPQDSGSSANEQAVQ
On to B1, for which the “Fold Change” value is reported as 1.578 and the “Log (Fold Change)” value is reported as 0.1982.

B2: sp¦P12236¦ADT3_HUMAN (protein, UniProt P12236 1-298, looked up)
ADP/ATP translocase 3: MTEQAISFAKDFLAGGIAAAISKTAVAPIERVKLLLQVQHASKQIAADKQYKGIVDCIVRIPKEQGVLSFWRGNLANVIRYFPTQALNFAFKDKYKQIFLGGVDKHTQFWRYFAGNLASGGAAGATSLCFVYPLDFARTRLAADVGKSGTEREFRGLGDCLVKITKSDGIRGLYQGFSVSVQGIIIYRAAYFGVYDTAKGMLPDPKNTHIVVSWMIAQTVTAVAGVVSYPFDTVRRRMMMQSGRKGADIMYTGTVDCWRKIFRDEGGKAFFKGAWSNVLRGMGGAFVLVLYDELKKVI
As for B2, the “Fold Change” value came out at 1.53 and the “Log (Fold Change)” value worked out at 0.1848.

B3: sp¦P37837¦TALDO_HUMAN (protein, UniProt P37837 1-337, looked up)
Transaldolase: MSSSPVKRQRMESALDQLKQFTTVVADTGDFHAIDEYKPQDATTNPSLILAAAQMPAYQELVEEAIAYGRKLGGSQEDQIKNAIDKLFVLFGAEILKKIPGRVSTEVDARLSFDKDAMVARARRLIELYKEAGISKDRILIKLSSTWEGIQAGKELEEQHGIHCNMTLLFSFAQAVACAEAGVTLISPFVGRILDWHVANTDKKSYEPLEDPGVKSVTKIYNYYKKFSYKTIVMGASFRNTGEIKALAGCDFLTISPKLLGELLQDNAKLVPVLSAKAAQASDLEKIHLDEKSFRWLHNEDQMAVEKLSDGIRKFAADAVKLERMLTERMFNAENGK
With B3, the “Fold Change” value was 1.543 and the “Log (Fold Change)” value is 0.1885.

B4: sp¦P40121¦CAPG_HUMAN (protein, UniProt P40121 1-348, looked up)
Macrophage-capping protein: MYTAIPQSGSPFPGSVQDPGLHVWRVEKLKPVPVAQENQGVFFSGDSYLVLHNGPEEVSHLHLWIGQQSSRDEQGACAVLAVHLNTLLGERPVQHREVQGNESDLFMSYFPRGLKYQEGGVESAFHKTSTGAPAAIKKLYQVKGKKNIRATERALNWDSFNTGDCFILDLGQNIFAWCGGKSNILERNKARDLALAIRDSERQGKAQVEIVTDGEEPAEMIQVLGPKPALKEGNPEEDLTADKANAQAAALYKVSDATGQMNLTKVADSSPFALELLISDDCFVLDNGLCGKIYIWKGRKANEKERQAALQVAEGFISRMQYAPNTQVEILPQGHESPIFKQFFKDWK
In the case of B4, the “Fold Change” value was 1.617 and the “Log (Fold Change)” value was found to be 0.2088.

B5: sp¦P30533¦AMRP_HUMAN (protein, UniProt P30533 35-357, looked up)
Alpha-2-macroglobulin …: YSREKNQPKPSPKRESGEEFRMEKLNQLWEKAQRLHLPPVRLAELHADLKIQERDELAWKKLKLDGLDEDGEKEARLIRNLNVILAKYGLDGKKDARQVTSNSLSGTQEDGLDDPRLEKLWHKAKTSGKFSGEELDKLWREFLHHKEKVHEYNVLLETLSRTEEIHENVISPSDLSDIKGSVLHSRHTELKEKLRSINQGLDRLRRVSHQGYSTEAEFEEPRVIDLWDLAQSANLTDKELEAFREELKHFEAKIEKHNHYQKQLEIAHEKLRHAESVGDGERVSRSREKHALLEGRTKELGYTVKKHLQDLSGRISRARHNEL
As to B5, the “Fold Change” value is on record as 1.604 and the “Log (Fold Change)” value stood at 0.2053.

B6: sp¦Q9UK45¦LSM7_HUMAN (protein, UniProt Q9UK45 2-103, looked up)
U6 snRNA-associated Sm-like …: ADKEKKKKESILDLSKYIDKTIRVKFQGGREASGILKGFDPLLNLVLDGTIEYMRDPDDQYKLTEDTRQLGLVVCRGTSVVLICPQDGMEAIPNPFIQQQDA
For B6, the “Fold Change” value is given as 1.561 and the “Log (Fold Change)” value turned out to be 0.1935.

B7: sp¦O95816¦BAG2_HUMAN (protein, UniProt O95816 2-211, looked up)
BAG family molecular …: AQAKINAKANEGRFCRSSSMADRSSRLLESLDQLELRVEALREAATAVEQEKEILLEMIHSIQNSQDMRQISDGEREELNLTANRLMGRTLTVEVSVETIRNPQQQESLKHATRIIDEVVNKFLDDLGNAKSHLMSLYSACSSEVPHGPVDQKFQSIVIGCALEDQKKIKRRLETLLRNIENSDKAIKLLEHSKGAGSKTLQQNAESRFN
Take B7: the “Fold Change” value stood at 1.58 and the “Log (Fold Change)” value came out at 0.1985.

B8: Gc-globulin (protein, UniProt P02774 17-474, looked up)
Vitamin D-binding protein: LERGRDYEKNKVCKEFSHLGKEDFTSLSLVLYSRKFPSGTFEQVSQLVKEVVSLTEACCAEGADPDCYDTRTSALSAKSCESNSPFPVHPGTAECCTKEGLERKLCMAALKHQPQEFPTYVEPTNDEICEAFRKDPKEYANQFMWEYSTNYGQAPLSLLVSYTKSYLSMVGSCCTSASPTVCFLKERLQLKHLSLLTTLSNRVCSQYAAYGEKKSRLSNLIKLAQKVPTADLEDVLPLAEDITNILSKCCESASEDCMAKELPEHTVKLCDNLSTKNSKFEDCCQEKTAMDVFVCTYFMPAAQLPELPDVELPTNKDVCDPGNTKVMDKYTFELSRRTHLPEVFLSKVLEPTLKSLGECCDVEDSTTCFNAKGPLLKKELSSFIDKGQELCADYSENTFTEYKKKLAERLKAKLPDATPTELAKLVNKHSDFASNCCSINSPPLYCDSEIDAELKNIL
With B8, the “Fold Change” value is reported as 5.464 and the “Log (Fold Change)” value came to 0.7375.

B9: sp¦O75534¦CSDE1_HUMAN (protein, UniProt O75534 1-798, looked up)
Cold shock domain-containing …: MSFDPNLLHNNGHNGYPNGTSAALRETGVIEKLLTSYGFIQCSERQARLFFHCSQYNGNLQDLKVGDDVEFEVSSDRRTGKPIAVKLVKIKQEILPEERMNGQVVCAVPHNLESKSPAAPGQSPTGSVCYERNGEVFYLTYTPEDVEGNVQLETGDKINFVIDNNKHTGAVSARNIMLLKKKQARCQGVVCAMKEAFGFIERGDVVKEIFFHYSEFKGDLETLQPGDDVEFTIKDRNGKEVATDVRLLPQGTVIFEDISIEHFEGTVTKVIPKVPSKNQNDPLPGRIKVDFVIPKELPFGDKDTKSKVTLLEGDHVRFNISTDRRDKLERATNIEVLSNTFQFTNEAREMGVIAAMRDGFGFIKCVDRDVRMFFHFSEILDGNQLHIADEVEFTVVPDMLSAQRNHAIRIKKLPKGTVSFHSHSDHRFLGTVEKEATFSNPKTTSPNKGKEKEAEDGIIAYDDCGVKLTIAFQAKDVEGSTSPQIGDKVEFSISDKQRPGQQVATCVRLLGRNSNSKRLLGYVATLKDNFGFIETANHDKEIFFHYSEFSGDVDSLELGDMVEYSLSKGKGNKVSAEKVNKTHSVNGITEEADPTIYSGKVIRPLRSVDPTQTEYQGMIEIVEEGDMKGEVYPFGIVGMANKGDCLQKGESVKFQLCVLGQNAQTMAYNITPLRRATVECVKDQFGFINYEVGDSKKLFFHVKEVQDGIELQAGDEVEFSVILNQRTGKCSACNVWRVCEGPKAVAAPRPDRLVNRLKNITLDDASAPRLMVLRQPRGPDNSMGFGAERKIRQAGVID
For the molecule B9, the “Fold Change” value was 1.544 and the “Log (Fold Change)” value is given as 0.1886.

B10: sp¦P21953¦ODBB_HUMAN (protein, UniProt P21953 51-392, looked up)
2-oxoisovalerate …: VAHFTFQPDPEPREYGQTQKMNLFQSVTSALDNSLAKDPTAVIFGEDVAFGGVFRCTVGLRDKYGKDRVFNTPLCEQGIVGFGIGIAVTGATAIAEIQFADYIFPAFDQIVNEAAKYRYRSGDLFNCGSLTIRSPWGCVGHGALYHSQSPEAFFAHCPGIKVVIPRSPFQAKGLLLSCIEDKNPCIFFEPKILYRAAAEEVPIEPYNIPLSQAEVIQEGSDVTLVAWGTQVHVIREVASMAKEKLGVSCEVIDLRTIIPWDVDTICKSVIKTGRLLISHEAPLTGGFASEISSTVQEECFLNLEAPISRVCGYDTPFPHIFEPFYIPDKWKCYDALRKMINY
As for B10, the “Fold Change” value was determined as 1.558 and the “Log (Fold Change)” value turned out to be 0.1926.

B11: sp¦Q9Y2Z0¦SGT1_HUMAN (protein, UniProt Q9Y2Z0 2-365, looked up)
Protein SGT1 homolog: AAAAAGTATSQRFFQSFSDALIDEDPQAALEELTKALEQKPDDAQYYCQRAYCHILLGNYCVAVADAKKSLELNPNNSTAMLRKGICEYHEKNYAAALETFTEGQKLDIETGFHRVGQAGLQLLTSSDPPALDSQSAGITGADANFSVWIKRCQEAQNGSESEVWTHQSKIKYDWYQTESQVVITLMIKNVQKNDVNVEFSEKELSALVKLPSGEDYNLKLELLHPIIPEQSTFKVLSTKIEIKLKKPEAVRWEKLEGQGDVPTPKQFVADVKNLYPSSSPYTRNWDKLVGEIKEEEKNEKLEGDAALNRLFQQIYSDGSDEVKRAMNKSFMESGGTVLSTNWSDVGKRKVEINPPDDMEWKKY
Take B11: the “Fold Change” value was found to be 1.579 and the “Log (Fold Change)” value amounted to 0.1983.

B12: Eosinophil cationic protein (protein, UniProt P12724 28-160, looked up)
Eosinophil cationic protein: RPPQFTRAQWFAIQHISLNPPRCTIAMRAINNYRWRCKNQNTFLRTTFANVVNVCGNQSIRCPHNRTLNNCHRSRFRVPLLHCDLINPGAQNISNCTYADRPGRRFYVVACDNRDPRDSPRYPVVPVHLDTTI
Regarding B12, the “Fold Change” value is on record as 5.495 and the “Log (Fold Change)” value is reported as 0.7399.

B13: sp¦Q9NPF4¦OSGEP_HUMAN (protein, UniProt Q9NPF4 1-335, looked up)
tRNA N6-adenosine …: MPAVLGFEGSANKIGVGVVRDGKVLANPRRTYVTPPGTGFLPGDTARHHRAVILDLLQEALTESGLTSQDIDCIAYTKGPGMGAPLVSVAVVARTVAQLWNKPLVGVNHCIGHIEMGRLITGATSPTVLYVSGGNTQVIAYSEHRYRIFGETIDIAVGNCLDRFARVLKISNDPSPGYNIEQMAKRGKKLVELPYTVKGMDVSFSGILSFIEDVAHRMLATGECTPEDLCFSLQETVFAMLVEITERAMAHCGSQEALIVGGVGCNVRLQEMMATMCQERGARLFATDERFCIDNGAMIAQAGWEMFRAGHRTPLSDSGVTQRYRTDEVEVTWRD
Regarding B13, the “Fold Change” value was 1.5342 and the “Log (Fold Change)” value is recorded as 0.1859.

B14: sp¦P04080¦CYTB_HUMAN (protein, UniProt P04080 1-98, looked up)
Cystatin-B: MMCGAPSATQPATAETQHIADQVRSQLEEKENKKFPVFKAVSFKSQVVAGTNYFIKVHVGDEDFVHLRVFQSLPHENKPLTLSNYQTNKAKHDELTYF
Consider B14, for which the “Fold Change” value worked out at 1.628 and the “Log (Fold Change)” value is on record as 0.2117.

B15: sp¦P24534¦EF1B_HUMAN (protein, UniProt P24534 2-225, looked up)
Elongation factor 1-beta: GFGDLKSPAGLQVLNDYLADKSYIEGYVPSQADVAVFEAVSSPPPADLCHALRWYNHIKSYEKEKASLPGVKKALGKYGPADVEDTTGSGATDSKDDDDIDLFGSDDEEESEEAKRLREERLAQYESKKAKKPALVAKSSILLDVKPWDDETDMAKLEECVRSIQADGLVWGSSKLVPVGYGIKKLQIQCVVEDDKVGTDMLEEQITAFEDYVQSMDVAAFNKI
As for B15, the “Fold Change” value worked out at 1.59 and the “Log (Fold Change)” value is reported as 0.2013.
